According to IntAct's records for PubMed 21152186:

B1: Matrix metalloproteinase-28 (Homo sapiens), Q9H239 (parent)
chain: MVARVGLLLRALQLLLWGHLDAQPAERGGQELRKEAEAFLEKYGYLNEQVPKAPTSTRFSDAIRAFQWVSQLPVSGVLDRATLRQMTRPRCGVTDTNSYAAWAERISDLFARHRTKMRRKKRFAKQGNKWYKQHLSYRLVNWPEHLPEPAVRGAVRAAFQLWSNVSALEFWEAPATGPADIRLTFFQGDHNDGLGNAFDGPGGALAHAFLPRRGEAHFDQDERWSLSRRRGRNLFVVLAHEIGHTLGLTHSPAPRALMAPYYKRLGRDALLSWDDVLAVQSLYGKPLGGSVAVQLPGKLFTDFETWDSYSPQGRRPETQGPKYCHSSFDAITVDRQQQLYIFKGSHFWEVAADGNVSEPRPLQERWVGLPPNIEAAAVSLNDGDFYFFKGGRCWRFRGPKPVWGLPQLCRAGGLPRHPDAALFFPPLRRLILFKGARYYVLARGGLQVEPYYPRSLQDWGGIPEEVSGALPRPDGSIIFFRDDRYWRLDQAKLQATTSGRWATELPWMGCWHANSGSALF

Variants of: B1
Settings: with furin_human FURIN

| Variant | effect of a mutation on the interaction |
| --- | --- |
| MVARVGLLLRALQLLLWGHLDAQPAERGGQELRKEAEAFLEKYGYLNEQVPKAPTSTRFSDAIRAFQWVSQLPVSGVLDRATLRQMTRPRCGVTDTNSYAAWAERISDLFARHRTKMRAAKRFAKQGNKWYKQHLSYRLVNWPEHLPEPAVRGAVRAAFQLWSNVSALEFWEAPATGPADIRLTFFQGDHNDGLGNAFDGPGGALAHAFLPRRGEAHFDQDERWSLSRRRGRNLFVVLAHEIGHTLGLTHSPAPRALMAPYYKRLGRDALLSWDDVLAVQSLYGKPLGGSVAVQLPGKLFTDFETWDSYSPQGRRPETQGPKYCHSSFDAITVDRQQQLYIFKGSHFWEVAADGNVSEPRPLQERWVGLPPNIEAAAVSLNDGDFYFFKGGRCWRFRGPKPVWGLPQLCRAGGLPRHPDAALFFPPLRRLILFKGARYYVLARGGLQVEPYYPRSLQDWGGIPEEVSGALPRPDGSIIFFRDDRYWRLDQAKLQATTSGRWATELPWMGCWHANSGSALF [R119A;K120A] | with no effect |
| MVARVGLLLRALQLLLWGHLDAQPAERGGQELRKEAEAFLEKYGAANEQVPKAPTSTRFSDAIRAFQWVSQLPVSGVLDRATLRQMTRPRCGVTDTNSYAAWAERISDLFARHRTKMRRKKRFAKQGNKWYKQHLSYRLVNWPEHLPEPAVRGAVRAAFQLWSNVSALEFWEAPATGPADIRLTFFQGDHNDGLGNAFDGPGGALAHAFLPRRGEAHFDQDERWSLSRRRGRNLFVVLAHEIGHTLGLTHSPAPRALMAPYYKRLGRDALLSWDDVLAVQSLYGKPLGGSVAVQLPGKLFTDFETWDSYSPQGRRPETQGPKYCHSSFDAITVDRQQQLYIFKGSHFWEVAADGNVSEPRPLQERWVGLPPNIEAAAVSLNDGDFYFFKGGRCWRFRGPKPVWGLPQLCRAGGLPRHPDAALFFPPLRRLILFKGARYYVLARGGLQVEPYYPRSLQDWGGIPEEVSGALPRPDGSIIFFRDDRYWRLDQAKLQATTSGRWATELPWMGCWHANSGSALF [Y45A;L46A] | disrupting interaction strength |
| MVARVGLLLRALQLLLWGHLDAQPAERGGQELRKEAEAFLEKYGYLNEQVPKAPTSTRFSDAIRAFQWVSQLPVSGVLDRATLRQMTRPRCGVTDTNSYAAWAERISDLFARHRTKMRRKKRFAKQGNKWYKQHLSYRLVNWPEHLPEPAVRGAVRAAFQLWSNVSALEFWEAPATGPADIRLTFFQGDHNDGLGNAFDGPGGALAHAFLPRRGEAHFDQDERWSLSRRRGRNLFVVLAHAIGHTLGLTHSPAPRALMAPYYKRLGRDALLSWDDVLAVQSLYGKPLGGSVAVQLPGKLFTDFETWDSYSPQGRRPETQGPKYCHSSFDAITVDRQQQLYIFKGSHFWEVAADGNVSEPRPLQERWVGLPPNIEAAAVSLNDGDFYFFKGGRCWRFRGPKPVWGLPQLCRAGGLPRHPDAALFFPPLRRLILFKGARYYVLARGGLQVEPYYPRSLQDWGGIPEEVSGALPRPDGSIIFFRDDRYWRLDQAKLQATTSGRWATELPWMGCWHANSGSALF [E241A] | with no effect |
| MVARVGLLLRALQLLLWGHLDAQPAERGGQELRKEAEAFLEKAAYLNEQVPKAPTSTRFSDAIRAFQWVSQLPVSGVLDRATLRQMTRPRCGVTDTNSYAAWAERISDLFARHRTKMRRKKRFAKQGNKWYKQHLSYRLVNWPEHLPEPAVRGAVRAAFQLWSNVSALEFWEAPATGPADIRLTFFQGDHNDGLGNAFDGPGGALAHAFLPRRGEAHFDQDERWSLSRRRGRNLFVVLAHEIGHTLGLTHSPAPRALMAPYYKRLGRDALLSWDDVLAVQSLYGKPLGGSVAVQLPGKLFTDFETWDSYSPQGRRPETQGPKYCHSSFDAITVDRQQQLYIFKGSHFWEVAADGNVSEPRPLQERWVGLPPNIEAAAVSLNDGDFYFFKGGRCWRFRGPKPVWGLPQLCRAGGLPRHPDAALFFPPLRRLILFKGARYYVLARGGLQVEPYYPRSLQDWGGIPEEVSGALPRPDGSIIFFRDDRYWRLDQAKLQATTSGRWATELPWMGCWHANSGSALF [Y43A;G44A] | with no effect |
